Measurements taken from patent US6528630.

Key:
[1] = molecular target: human neuronal calcium channel α1B-1 subunit alone (human); test: saturation binding of 125I-ω-CgTx GVIA to transfected HEK293 cells
[2] = molecular target: T1, α1B-1α2b human neuronal calcium channel subunit combination (human); test: as above
[3] = molecular target: T1, α1B-1α2b human neuronal calcium channel …; test: Bmax of 125I-ω-CgTx GVIA binding, against α1B-1 alone

B1: 125I-ω-CgTx GVIA, P01522 46-72 (peptide)
peptide: CKSPGSSCSPTSYNCCRSCNPYTKRCY
modifications: not checked
[1]
  Bmax: 757 sites/cell
  Kd: 0.0317 nM
[2]
  Bmax: 2260 sites/cell
  Kd: 0.0846 nM
[3]
  fold change of binding capacity: 3 fold
